According to US12084523 (TECHNION RESEARCH AND DEVELOPMENT FOUNDATION, dated 2024):
Starred links: 1 amine or outer side, 2 acyl side, 3 side chain; linkers in the order of their positions; H or OH if unused. Positions of bridges follow the written chain, without caps; N, C: chain ends. Non-standard residues stand in square brackets, D forms with d. No end group written: not given here. mClBz = N-terminal chlorobenzyl thioether anchor (M*) that cyclises onto the Cys, the meta form of the mClBz/pClBz pair, O=C(c1cccc(C[*:3])c1)[*:2]; code ∗ = not defined here

B1: Ub4i cyclic peptide (peptide)
peptide: WGWFDDLYLFVAYCG
modifications: position 1 is ClAc-D-Trp (M* of Table 2); macrocycle closed between the N-terminal chloroacetyl group and the Cys
notes: also called U4i
B2: Ub2ii cyclic peptide (peptide)
peptide: WWYDREYYYLGYGCG
modifications: position 1 is ClAc-D-Trp (M* of Table 2); macrocycle closed between the N-terminal chloroacetyl group and the Cys
notes: also called U2ii

How the values were obtained:
[1] = biological target: T1, biotin-^K48Ub2 (chemically synthesized K48-linked di-ubiquitin, biotin on the distal Ub) (UniProt P0CG48 1-76, isopeptide bond from the C-terminus of the distal Ub to Lys48 of the proximal Ub; biotin at the N-terminus of the distal Ub); test: SPR, K48-Ub2
T1 construct: mature; also called Lys48-linked ubiquitin dimer

[2] = biological target: T1, biotin-^K48Ub2 (chemically synthesized …); test: SPR, K48-Ub2; remark: listed apart in the source
[3] = biological target: T2, biotin-^K48Ub4 (chemically synthesized K48-linked tetra-ubiquitin, biotin on the distal Ub) (UniProt P0CG48 1-76, isopeptide bonds from the C-terminus of each Ub to Lys48 of the next Ub; biotin at the N-terminus of the distal Ub); test: SPR (Biacore T100), biotin-Ub chain on the chip, peptide in flow; error 7
T2 construct: mature; also called Ub tetramer

[4] = biological target: T1, biotin-^K48Ub2 (chemically synthesized …); test: SPR (Biacore T100), biotin-Ub chain on the chip, peptide in flow; error 28
[5] = biological target: T2, biotin-^K48Ub4 (chemically synthesized …); test: SPR (Biacore T100), biotin-Ub chain on the chip, peptide in flow; error 4
[6] = biological target: T1, biotin-^K48Ub2 (chemically synthesized …); test: SPR (Biacore T100), biotin-Ub chain on the chip, peptide in flow; error 8
[7] = biological target: T2, biotin-^K48Ub4 (chemically synthesized …); test: SPR (Biacore T100), biotin-Ub chain on the chip, peptide in flow; error 0.002
[8] = biological target: T2, biotin-^K48Ub4 (chemically synthesized …); test: SPR (Biacore T100), biotin-Ub chain on the chip, peptide in flow; error 7.30E+05
[9] = biological target: T1, biotin-^K48Ub2 (chemically synthesized …); test: SPR, K48-Ub2; mClBz anchor; wildtype J08, no mutations

Row | Binder | Kd [1] [nM] | Kd [2] [nM] | Kd [5] [nM] | further results
1 | B1 | 90 | 90 | – | Kd [3]: 26 nM; Kd [4]: 91 nM
2 | B2 | 33 | – | 14 | Kd [6]: 33 nM
3 | {code ∗}-[dW]LYLDDSGDWWICG (thioether N-13 (inferred); reading uncertain; also: printed as *WLYLDDSGDWWICG, also called U4ix; Ub4xi) [Ub4ix cyclic peptide] | – | – | – | koff [7]: 0.021 s⁻¹; kon [8]: 3.52e+06 M⁻¹ s⁻¹
4 | mClBz-GWFDDLYLFVAYCG (bridge N-13; not fully specified (bridges), also called J08 (M* = mClBz)) [J08_mClBz] | 10 | – | – | Kd [9]: 10 nM
5 | mClBz-GWFDDEYLFVAYCG (bridge N-13; not fully specified (bridges)) [J08_mClBz_L6E] | 5 | 5 | – | –
6 | {CH2CO}-[dW]GWFDNLYWYVTHCG (thioether N-14, also called U2i) [Ub2i cyclic peptide] | – | – | 14 | –
